The test deals with HLA-A2.1 (human), A*02:0. The test can be described thus: cell-based or functional assay.

These results are taken from patent US20030064916A1.

“A2-specific monoclonal antibody PA2.1 (ATCC HB 117)”: the Specific 51Cr release (%) by CTL A2 149, E:T 10, BT 549 targets, with anti-A2 (53 without) was 37%; the Specific 51Cr release (%) by CTL A2 149, E:T 10, MCF7 targets, with anti-A2 (38 without) is 13%; the Specific 51Cr release (%) by CTL A2 149, E:T 10, MDA 231 targets, with anti-A2 (24 without) was 5%; the Specific 51Cr release (%) by CTL A2 149, E:T 10, Ramos A2.1 targets, with anti-A2 (39 without) worked out at 12%. This substance registered a Specific 51Cr release (%) by CTL A2 149, E:T 10, SW 480 targets, with anti-A2 (55 without) of 26%; a Specific 51Cr release (%) by CTL A2 264, E:T 10, BT 549 targets, with anti-A2 (79 without) of 47%; a Specific 51Cr release (%) by CTL A2 264, E:T 10, MCF7 targets, with anti-A2 (79 without) of 38%; a Specific 51Cr release (%) by CTL A2 264, E:T 10, MDA 231 targets, with anti-A2 (31 without) of 10%. Besides, the Specific 51Cr release (%) by CTL A2 264, E:T 10, Ramos A2.1 targets, with anti-A2 (43 without) was 0% and the Specific 51Cr release (%) by CTL A2 264, E:T 10, SW 480 targets, with anti-A2 (59 without) amounted to 17%.
